Measurements reported in US20250340622A1 (AstraZeneca / MedImmune, published 2025).

Experiments:
Assay in all cases: cell-based or functional assay
[1] = target: RSV B F protein variant I206M:Q209R:S211N (RSV B)
[2] = target: RSV B F protein variant I64T:K68E:I206M:Q209R (RSV B)
[3] = target: RSV B F protein variant K68N (RSV B)
[4] = target: RSV B F protein variant K68N:N208S (RSV B, strain B9320)
[5] = target: RSV B F protein variant K68Q:S211N (RSV B)
[6] = target: RSV B F protein variant N201S (RSV B)
[7] = target: RSV B F protein variant K68Q:I206M:Q209R (RSV B)
[8] = target: RSV B F protein variant K65Q:K68N (RSV B)
[9] = target: RSV B F protein variant N208S (RSV B)
[10] = target: RSV B F protein variant L203I (RSV B)
[11] = target: RSV B F protein variant N201T:I206M:Q209R (RSV B)
[12] = target: RSV B F protein variant I206M:Q209R (RSV B)
[13] = target: RSV B F protein variant K68N:N201S (RSV B, strain B9320)
[14] = target: RSV B F protein variant S211N (RSV B)
[15] = target: RSV B F protein variant N208D (RSV B, strain B9320)

B1: nirsevimab (antibody, human IgG1, kappa, V domains shown)
VH: QVQLVQSGAEVKKPGSSVMVSCQASGGLLEDYIINWVRQAPGQGPEWMGGIIPVLGTVHYGPKFQGRVTITADESTDTAYMELSSLRSEDTAMYYCATETALVVSETYLPHYFDNWGQGTLVTVSS
VL: DIQMTQSPSSLSAAVGDRVTITCQASQDIVNYLNWYQQKPGKAPKLLIYVASNLETGVPSRFSGSGSGTDFSLTISSLQPEDVATYYCQQYDNLPLTFGGGTKVEIKR
With B1 the “fold change in susceptibility to nirsevimab” value (shortened to “fold change in susceptibility”) [1] was 0.5 fold, the “fold reduced susceptibility to nirsevimab neutralization (recombinant RSV neutralization susceptibility assay)” value [2] was greater than 447 fold and the “fold reduced susceptibility to nirsevimab neutralization (recombinant RSV neutralization susceptibility assay)” value [3] was 29.9 fold. The “fold reduced susceptibility to nirsevimab (recombinant RSV B variant)” value [4] was greater than 90000 fold, the “fold reduced susceptibility to nirsevimab neutralization (recombinant RSV neutralization susceptibility assay)” value [5] was 35.7 fold and the “fold reduced susceptibility to nirsevimab neutralization (recombinant RSV neutralization susceptibility assay)” value [6] was 127 fold. For the same binder, the “fold reduced susceptibility to nirsevimab neutralization (recombinant RSV neutralization susceptibility assay)” value [7] was 46.4 fold, the “fold reduced susceptibility to nirsevimab neutralization (recombinant RSV neutralization susceptibility assay)” value [8] was 1240 fold and the “fold reduced susceptibility to nirsevimab (recombinant RSV B variant)” value [9] was greater than 24000 fold. The “fold reduced susceptibility to nirsevimab neutralization (recombinant RSV neutralization susceptibility assay)” value [9] was greater than 387 fold, the “fold reduced susceptibility to nirsevimab neutralization (recombinant RSV neutralization susceptibility assay)” value [10] was 3000 fold and the “fold reduced susceptibility to nirsevimab neutralization (recombinant RSV neutralization susceptibility assay)” value [11] was greater than 418 fold. For the same binder, the “fold change in susceptibility” value [12] was 0.23 fold, the “fold reduced susceptibility to nirsevimab (recombinant RSV B variant)” value [13] was greater than 13000 fold and the “fold change in susceptibility” value [14] was 1.2 fold. For the same binder, the “fold reduced susceptibility to nirsevimab (recombinant RSV B variant)” value [15] was greater than 90000 fold.
